The RNAGym collection of RNA variant scans (doi:10.1093/molbev/msab373)

B1: Azoarcus group I ribozyme (parent)
chain: GUGCCUUGCGCCGGGAAACCACGCAAGGGAUGGUGUCAAAUUCGGCGAAACCUAAGCGCCCGCCCGGGCGUAUGGCAACGCCGAGCCAAGCUUCGGCGCCUGCGCCGAUGAAGGUGUAGAGACUAGACGGCACCCACCUAAGGCAAACGCUAUGGUGAAGGCAUAGUCCAGGGAGUGGCGAAAGUCACACAAACCGG

Variants of: B1
Test: reverse-splicing fitness (ratio to wild type); higher = more active; in vitro selection; Mg2+ level not given
Procedure, shortened: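 An in vitro group I ribozyme library with randomized positions was T7-transcribed and gel-purified. In triplicate, 10 pmol RNA in EPPS pH 7.5 was reacted with 50 pmoles of a 30-nt RNA substrate for 1 h at 37 °C across several added MgCl2 levels (1–48 mM), then stopped with EDTA. Products were reverse transcribed from a substrate-complementary primer, PCR-amplified and sequenced (HiSeq 4000). Fitness is a variant's read proportion after selection over that before, normalised to wild type.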

Variant	reverse-splicing fitness
C82G A111G A120C A145G U176C	0.0418
C82G A111G A120C A145G U176A	0.0236
C82G A111G A120C A145G U176G	0.00851
C82G A111C A145G C150U C169G	0.00884
C82G A111C A145G C150U C169A	0.0097
C82G A111C A145G C150U C169U	0.0115
C82G A111C C150G	0.0174
C82G A111C C150U	0.143
C82G A111C C150A	0.0254
C82G A111C C169G U176C	0.0255
C82G A111C C169G U176A	0.0182
C82G A111C C169G U176G	0.00724
C82G A111C A145G C169G	0.00916
C82G A111C A145G C169A	0.0104
C82G A111C A145G C169U	0.0141
C82G A111G A120C A145C C150A C169U U176A	0.0148
C82G A111G A120C A145C C150A C169U U176C	0.0126
C82G A111G A120C A145C C150A C169U U176G	0.00668
C82G A111G A120C A145C C150G C169U U176A	0.00714
C82G A111G A120C A145C C150G C169U U176G	0.00551
C82G A111G A120C A145C C150G C169U U176C	0.0131

Variant	reverse-splicing fitness
C82G A111G A120C A145G C150G C169G U176G	0.00653
C82G A111G A120C A145G C150G C169G U176A	0.0109
C82G A111G A120C A145G C150G C169G U176C	0.0112
C82G A111G A120C A145C C150A U176G	0.00662
C82G A111G A120C A145C C150A U176A	0.0112
C82G A111G A120C A145C C150A U176C	0.0111
C82G A111G A120C A145C C150U C169A U176C	0.00829
C82G A111G A120C A145C C150U C169A U176G	0.00589
C82G A111G A120C A145C C150U C169A U176A	0.012
C82G A111C C150A C169G U176C	0.024
C82G A111C C150A C169G U176G	0.00931
C82G A111C C150A C169G U176A	0.0173
C82G A111G A120C A145G C150U C169A U176G	0.00689
C82G A111G A120C A145G C150U C169A U176C	0.0173
C82G A111G A120C A145G C150U C169A U176A	0.0156
C82G A111G A120C A145U C150A C169G U176A	0.0168
C82G A111G A120C A145U C150A C169G U176G	0.00622
C82G A111G A120C A145U C150A C169G U176C	0.0209
C82G A111G A120C A145U	0.0901
C82G A111G A120C A145G	0.0871
C82G A111G A120C A145C	0.0798

Variant	reverse-splicing fitness
C82G A111C A145U C169G U176G	0.00766
C82G A111C A145U C169G U176C	0.0169
C82G A111C A145U C169G U176A	0.014
C82G A111C A145G C150U C169G U176G	0.00611
C82G A111C A145G C150U C169G U176A	0.0107
C82G A111C A145G C150U C169G U176C	0.0159
C82G A111C A145U C169A U176C	0.0153
C82G A111C A145U C169A U176G	0.00775
C82G A111C A145U C169A U176A	0.0149
C82G A111G A120C A145U C150A U176G	0.00773
C82G A111G A120C A145U C150A U176C	0.0167
C82G A111G A120C A145U C150A U176A	0.0132
C82G A111C A145G C150U C169U U176A	0.0129
C82G A111C A145G C150U C169U U176C	0.0127
C82G A111C A145G C150U C169U U176G	0.0071
C82G A111G A120C A145U C150A C169U U176C	0.0136
C82G A111G A120C A145U C150A C169U U176G	0.00626
C82G A111G A120C A145U C150A C169U U176A	0.0146
C82G A111C C169U U176G	0.00759
C82G A111C C169U U176A	0.0194
C82G A111C C169U U176C	0.0154

Variant	reverse-splicing fitness
C82G A111G A120C A145G C150A C169G U176G	0.00696
C82G A111G A120C A145G C150A C169G U176A	0.02
C82G A111G A120C A145G C150A C169G U176C	0.0237
C82G A111C C150A C169U U176C	0.0178
C82G A111C C150A C169U U176G	0.0093
C82G A111C C150A C169U U176A	0.0193
C82G A111C A145U C150U C169A U176C	0.0132
C82G A111C A145U C150U C169A U176A	0.0121
C82G A111C A145U C150U C169A U176G	0.00772
C82G A111G A120C A145G C169U	0.015
C82G A111G A120C A145G C169A	0.00771
C82G A111G A120C A145G C169G	0.0079
C82G A111G A120C A145C C150G U176A	0.00574
C82G A111G A120C A145C C150G U176C	0.00886
C82G A111G A120C A145C C150G U176G	0.0035
C82G A111G A120C A145U C150G C169G U176A	0.00957
C82G A111G A120C A145U C150G C169G U176C	0.0102
C82G A111C A145G C150G C169U U176A	0.0103
C82G A111C A145G C150G C169U U176G	0.00728
C82G A111C A145G C150G C169U U176C	0.0116
